The nanobody polyreactivity screen of Harvey et al. (2022)

Test: yeast display, Sf9 membrane polyspecificity reagent, FACS + sequencing; frameworks hold sequencing errors
In short: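 Nanobodies came from a synthetic yeast display library in Saccharomyces cerevisiae BJ5465, induced with galactose for 36–48 hours and stained for 1 hour at 4 °C with 10% biotinylated, detergent-solubilized Sf9 membrane reagent. Cells were enriched on streptavidin microbeads and then FACS-sorted, with low and high (top ~1%) gates set on anti-HA fluorescence for expression and streptavidin fluorescence for reagent binding. Each polyreactivity label reflects the gate a clone came from. Genes were amplified by colony PCR, sequenced by MiSeq 2 × 250 and filtered by CDR length.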

Sequence | polyreactivity (PSR sort gate)
QVQLVESGGGLVQAGGSLRISCAASGITITSYAMGWYRQAPGKEWELVASIDSDDSTNYADSVKGRFTISRDNAKNTVYFQMNSLKPEDNAVYYSAATSKPLGLKTYGYWGQGTQVTVSS | low polyreactivity
QVQLVESGGGLVQAGGSLRLSCAASGSIFYYYAMGWYRQAPGKEMELVAAIDSGGSTYYAHSVKGRFTISRDNAKNTVYLQMNSLKPEDTAVYYCAADTYWFVYYGYDYWGQGTQVTVSS | low polyreactivity
QVQLVESGGGLVQAGGSLRLSCAASGYTFKSYVMGWYRQAPGKERELVAAITSIGGSTYYADSVKGRFTISRDNAKNTVYLQMNRLKPEDTAVYYCAARSFRFYPRMHDWGQGTQVTVSS | high polyreactivity
QVQLEESVGGLVQAGGSLRLSCAASGSTFVYYGMGWYRQAPGKERELVAAITDIGDSTNYADSVKGRFTISRDNAKNTVYLQMNSLKPDDTAVYYCAASGRSVPYYGSPRNDYWGQGTQVTVSS | low polyreactivity
QVQLVESGGGLVQAGGSLRLSCAASGSIFVLNAMGWYRQAPGQERELVAAITNVGSTYYADSVKGRFTISRDNAKNTVYLQMNSLKPEDTAVYYCAAVLPFKYDYWGQGTQVTVSS | low polyreactivity
QVQLVETGGVLDQAGGSLRLSCAASGRIFWANAMGWYRQAPGKERELVAAISYSGVSTYYADSVKGRFTSSRDNAKNTVYLQMNSLKPEDTAVYYCAADRYRKYYYWGQGTQVTVSS | high polyreactivity
QVQLVESGGGLVQAGGSLRLSCAASGFTFDGYAMGWYRQAPVKERDLVAAISDSGDSTYYADSVKGRFTISRDNAKNTVYVQMNILKPEDTAVYYCNAEQWQSSEYGEWSKRDYWGQGTQVTVSS | low polyreactivity
QVQLVESGGRLVQAGGRLRLSGAASGSNFTDNAMGWYRQAPGKERELVAGISERGSSTYYADSVKGRFTISRDNAKNTVYLQMNSLKRVDTAVYYCSAEDVGRYWSSTHNWARGDYWGQGTQVTVSS | low polyreactivity
QDQLVESGGGLVQAGGSLRLSCAASVSTFYVYAMGWYRQAPGKERELVAAITRGGSTYYADSVKGRFTISRDNAKNTVYLQMNSLKPEDTAGYYCAADYGSRWGYDYCGQGTQVTVSS | low polyreactivity
QVQLVESGGGLVQAGGSLRLSCAASGFIFEMYAMGWYRQAHGKERELVAAISSSGDSTYYADSVKGRFTISRDNEKNTVYLQMNSLIPEDNAVYYCATECGYALYDYWGQGTQVTVSS | low polyreactivity
QVQLVESGGGLVQAGGSLRLSCAASGSTLIANAMGWYRQAPGKERELVAGITYRGGDITTYADSVKGSFTNSSDNANNTVYLQINTLKPEDTAVYYCAAPVVWPTWARGGYWGQGTQVTVSS | low polyreactivity
QVQHVESGGVLVQARGSLRLTCAASGSTFIRNAMGWYRQAPGKERELVAAISASGGRSYYADSVKGRFTFSRDNAKTSVYCQLNSLKSEDTAVYYFAARNARYVHTMVFWGQGTQVTVSS | high polyreactivity
QVQLVESGGGLVQAVGSLRLSCAASGRIFGPNAMGWYRQAPGKERELVAAITGSGGSTYADSVKGRFTISRDNAKNTVYLQMNSLKPEDTAVYYCAKKTWYSYDWGQGTQVTVSS | high polyreactivity
QVQLGESGGGLVQAGGSLRLSCAASGNTFGTYAMGWYRHAPGKERELVAAITWRGGRTTYADSVKGRFTISRDNAKNTVYLQMIRLIPEDTAVYYCAAVIHWWYATYDYWGQGTQVTVSS | high polyreactivity
QVQLVESGGGLVQAGGSLRLSCAASGFTLTRNAMGCYRQAPGKERELVAAISWSGGTTYYADSVKGRFTISRDNAKNTVYLQMNSLKPEDTAVYYCNTASWRAQYYYWGQGTQVTVSS | high polyreactivity
QVQLVDSGGGLVQAGGSLRLSCAASGLTFRRYAMAWYRQAPGKERELVAGISRGGSTYYADSVKGRFTISRDNAKNTVYLQMTSLKPEDTAVYYCAAYNRGTYPVQPVPYDMDYWGQGTQVTVSS | low polyreactivity

Sequence | polyreactivity (PSR sort gate)
QVQLVESGGGLVKAGGSLRLSCAASGSTFVGYAMGWYRQAPGKERELVADITWSGTNTYYADSVKGRFTISRDNAKNTVYLQMNSLKPEDTAVYYCAADIARSVRFYYWGQGTQVTVSS | low polyreactivity
QVQLVESGGGLVQAGGSLRLSCAASGRTFRRNAMGWYRQAPGQERELVAGIRKRGGSTYYADSVKGRFTISRDNAKNTVYLQMNSLKPQDTAVYYCAAQPALTYRFYYWGQGTQVTVSS | high polyreactivity
QVQLVESGGGLVQAGGSLRLSCAASGFTFGGYAMGWYRQAPGKERGLVAAISGSGGRTYYADSVKGRFTISRDNAKNTVYLQMNSLKPEDTAVYYCAAETVTRSFYSEYDYWGQGTQVTVSS | low polyreactivity
QVQLVESGGGLVQAGGSLRLSCAASGSTFYYNDMGWYRQAPGKERELVAAIRTSGSTNYADSVKGRFTISRDNAKNTVYLQMNSLKPEDTAVYYCNAVVRHWFQGWYGRGDDYWGQGTQVTVSS | low polyreactivity
QVQLVESGGGLVQAGGSLRLSCAASGSTLYVYTMGWYRQAPGKERELVATINTSGSRTYYADSLKGRFTISRDIAKNTVYLQMNSLKPEDTAVYYCNARSSRWFYGYNYWGQGTQVTVSS | high polyreactivity
QVQLVESGGGLVQAGGSLRLSCAASGLIFFTYAMGWYRQAPGKERELVAAITGRGGRTYYADSVKGRFTISRDNAKNTVYLQMNSLKPEDTAVYYCNAEYRYYQKTPGRYTNVEYDYWGQGTQVTVSS | low polyreactivity
QVQIVESGGGLVQAGGSLRLSCAPSGSTFWLYAMGWYRHAPGKERELVASISSRGGSTYYADSVTGRFTISRDNAKNTVYLQMNSLKPEDTAVYYCAAKDIRYDDEYWGQGTQVTVSS | low polyreactivity
QVQLVESGGGLVQAGGSLRLSCAASGNAMGWYRQAPGKERELVASINRSGGRTYFADSVKGRFTISRDNAKNTVYLQMNRLIPEDTAVYYCAKGPRGADLTHGAYVEMEYWGQGTQVTVSS | low polyreactivity
QVQLVESGGGLVQAGGSLRLSCAASGRTFYSYVMGWYRQAPGKEREFVADISQSGGRTFYSDSVKGRFTISRDNAKNTVYLQMNSLKPEDTAVYYCAAAKRGSYARGYYWGQGTQVTVSS | low polyreactivity
QVQLVESRGGLVQAGGSLRLSCAASGSTLYQYAMGWYRQAPGKERELVAAITKSGGRTYYADSVKGRFTISRDNAKNTVYLHMNSLKPEDTAVYYCNVVRGSYSSGGDYWGQGTQVTVSS | high polyreactivity
QVQLVESGGGLVQAGGSLRLSFAASGGIFRLYAMGWYRQAPGKERELVAAINGGGSTNYADSVKGRFTISRDNAKNTVYLQMNSLKPEDTAVYYCNAVQYYRFQVYEYDYWGQGTQVTVSS | high polyreactivity
QVQLVESGGGLVQAGGSLRLSCAASGRTFFINAMGWYRQAPGKERELVAAMRVGAGSTYYADSVKGRFTISRDNAKNTVYLQMNSLKPEDTAVYYCSKRTATSTRKYDYWGQGTQVTVSS | high polyreactivity
QVHLVESGGGLVQAGGSLRLSSAASGSTFYKNAMGWYRQAPGKERELVAGISRRGGRTYYADSVKGRFTISRDNANNTVYLQMNSLKPEDTAVYYCNTGHEEDEYDYWGQGTQVTVSS | low polyreactivity
QVQLVESGGGLLQAGGSLRLSCAASGTIFAYYAMGWYRPAPEKERELVARITYSTDRTYYADSVKGRFTISRDNAKNTVYLQMNRLKPEDTAVYYCAVETWWGFKRYKFDYWGLGTQVTVSS | low polyreactivity
QVQLVESGGGLVQAGGSLRLSCDPSGLTFNTYAMGWYRQAPGKERELVAAISSDGSTYYADSVKGRFTITRDNAKNTVYLQMNSLKPEDTAVYYCAATSFWWDLAGYYHWYDYWGQGTQVTVSS | high polyreactivity
QVQLVESGGGLVQAGGSLRLSCAASGSTFVVNAMGWYRQAPGKERELVAAITQSGGSTFYADSVKGRFTISRDNAKNTVYLQMNSLKPEDTAVYYWGLGTQVTVSS | low polyreactivity
